Data as given in PMC2878840.

Molecular target: hypoglycosylated E-cadherin variant V13 (V13-flag) (human)
Test: co-IP

Substance: protein phosphatase 2A catalytic subunit (from UniProt A0A8I3NN81 1-306) (enzyme)
- fold change of co-precipitated PP2A against wild type E-cadherin: 2 fold
